Assay results as given in patent US20030157132A1.

Molecular target: E2tag (tPA signal+E2(384-711)+tag; soluble E2/NS1 of HCV J1 clone with C-terminal E-tag) (hepatitis C virus (HCV J1 clone))
Assay: SPR, BIACORE X; E2tag amine-coupled to CM5 chip, scFv1-1 injected in HBS buffer

B1: single chain antibody scFv1-1 (scFv)
scFv: QVQLVQSGAEVKKPGSSVKVSCKASGGTYIDQPIGWVRQAPGQGLEWMGGIIPLSGPPHYAQKFQGKVSITADESTSTAYLELTSLTSEDTAVYYCARVLRGYCRRGSCYDWLDPWGQGTLVTVSSGGGGSGGGGSGGGGSALDIQMTQSPSSLSASVGDRVTITCQASQDISNYLNWYQQKPGKAPKLLLYATSRLYSGVPSRFSGSGSGTDFTLSISSLQPEDFATYYCQQTKSFPLTFGGGTKVEIKRAAAEQKLISEEDLGSRSTHHAHHHAA
Kd: 2.2 nM
